Assay results from the DeepSol protein solubility set.

assay: soluble on expression in E. coli; label from the status in PepcDB or PDB records

**Q.** For “MTAPTLAPIDPPARAQLLADLQGAPDWDVIVIGGGATGLGTAVDAAARGYRTLLVEAADFAKGTSSKATKLVHGGVRYLAQGNISLVREALHERGLLNRNAPHLVWPLGFVVPAYSLLDQPFYGVGLKMYDMLAGKLNLAPSRWLSRGETLRHAATVAERVNGRALRGGILYYDGQFDDARLAIALMRTLYDLGGVALNYARAVGLTRTDGRVDGVTVADALGELRVTLRAKCVVNATGVWVDAVRRMDDPAAQTMVAPSQGVHLTLPRDFLPGEDAILIPKTDDGRVLFVVPWNGHTIVGTTDTPRTDLPLDPQAGQNEIDFILATAARYLSRKPTRADVTSVWAGLRPLVKATGEASTKSLSREHTIVVSKGGLVTVTGGKWTTYRKMAQDVVDTAIQHKLLAAAPCRTSELPLHGAPTDGQPSGAPHGTPDSYYGTDLATLRALPGADRMLVKASALTEAHVRYAARHELARTVEDVLARRNRALFLDAEAALLAAPEVARILAQELGHDEAWSRATLAEFEAVAAHYRLALEHHHHHH”, which “soluble on expression in E. coli” value is on record?
**A.** Its value is “soluble”.

**Q.** With “MSLKITGFRSLTTVHRWGRPVGDANGFVAQGVTEVPVLLVETDGGLTGVGLGAHGDAERVFPALDGQDPRAVTTLYDRMLAHTFKSGHAGTAFGTIGAFDTALWDLKAKMAGEPLWRTLGAADRFVPGYASGLDIALDEEELVALYSGWAARGFTGAKLKGGLDTERDIGRLRAVAEVLRPNTRSPALMLDVNESWGRHQAVRLLARIEDRVELAWIEEPVRRWDARGHRAVGRAGRTAVASGENLTGLEQFRPLLAADALQVVQAAGVWGITHFLRVATLAHGHDLPVSPVGYHANPLAHAAAAVPNHLVTEVQDIGTPAGLTVDQAIEDGGIVLGDAPGLGITVDESALAAPRQNAGWARPDGPHVRPRDAGLRLVPEPGPPGPAARVRAGTPSLGVPGPVHRPARSEHTERENTPEGHHHHHH” as the sequence, how does the “soluble on expression in E. coli” value read?
**A.** Its value is “not soluble”.

**Q.** For “MGSDKIHHHHHHEVYIFTSHREPALDGLHYLYSYDGYHWDSIAGSWLKPEIGNKTPYYNYFTKQTEEQKYAPNSMMRDPSMTQGPDGTFHLVWTISWNGEQGFGYASSKDLIHWSEQREIKVMKDSLTNNVWAPEVFYDDEKEQFIVAWSSAIPVERYTAADSLGANKSHRAYYTTTKDFQTFTPAKAFYDPGFNSIDGFIVKRDKNDYVLIIKDNRKPGYSDLFCVSGPSAEGPYADPSVKFAPTYSEGPCAVKVGDEWLIYFDVYREGRFGAVSTKDFKNFTPIDDQISIPQGHKHGTIIEVPESVLLNLKAEEAKRFPQKD”, which “soluble on expression in E. coli” value is on record?
**A.** Its value is “not soluble”.

**Q.** With “MGSDKIHHHHHHVARLVASVDKYIYTVNGDTILSHQFISNNAQFGNGIEVSQDNHFPWSGEIHYEINNPNQLAFKLGIRIPSWSRNKFGLKINGKKIDLASEDGFIYINVNDESLTVDLSLDMNTKFMRSSNKVSSNYGKIAVQRGPIVYAAEETDNKAPLWNYKVETDKEPKYHYNKDLLEGVGTITVKSIAEEISPEDGPLYSTIDEATANYETDLKLIPYYAWANREEGQMQVWLNK” as the sequence, how does the “soluble on expression in E. coli” value read?
**A.** Its value is “not soluble”.

**Q.** With “MSLNAQTKSLHQLQQEFVDLRCGMFIHFNMPTFFNEDWPDPDAAPELFNPVRMDCKQWAKAAKSANMTYGCLTTKHHSGFCIWDTKTTDYSVMSSPFKRDVVKEYADAFRAEGMKVMLYYSILDTHARLRPKCITPQHIEMIKEQLRELLTNYGEITALIIDGWDAPWSRISYDDVPFEDIYRLVKSIQPNCLVMDLNAAKYPAEALFYTDIKSYEQGAGQHISKDTNRLPALSCLPLQQNWFWKESFPTTPVKSPAQMVNDNIIPMGKSYCNFILNVAPNRDGLMDANALKALKEIGKLWKNDGRVATVPEADAPIISSNIAKYQPAEGTWSSDYAIMDFANDDDFGTCWNSNPEVKVPWYSVTFEREKSFNMVVITDRNNDRLQEYRLEYRAGGTWKPLYEGKAPTGLRVKIHRFDTVWGDAVRMTVLNSNGTTSIAEFGVYCEREGHHHHHH” as the sequence, how does the “soluble on expression in E. coli” value read?
**A.** The value was “soluble”.

**Q.** Which “soluble on expression in E. coli” value does the source give for “NKDNPYIKPDDPRPVVLFCSTFSPSLTCAPEVFEQIKALSQKSQWRWLVQFHPKMKPSIVEQYKTLENENLQFVETDNVIPLLQAGDVMLCDTSSILLMFLMQRKPVVTFKNQSPKAHLIDINRVEEIEPAITRALSRTDDLMAHIHDYCNQIHPTGDGQSSQRVLAATDA” here?
**A.** Its value is “not soluble”.

**Q.** For “MSLNNYPFASMRDCFDMSAYFVVGPQDCKGRPVTDVVDDALRGGATFIQLRAKNADAKDITEMARDIAQVIKNSGKSDSVAFVIDDRVDVVWQARDKGIKVDGVHIGQTDMEPQEARALLGEDAIVGLSAETESLVKLINELPSGCIDYIGAGPLHVSTTKPEASVGGNDGSGHTLDEEQINAICAASEFPVVVGGGVHADDMEMLARSKAAGWFVVSAIAGADDPEAATREMVTRWKAVRGDAEGHHHHHH”, which “soluble on expression in E. coli” value is on record?
**A.** Its value is “soluble”.

**Q.** With “MCPGVMGVGSTQSIVLVPGFPKPSTMNVQWKAEGAASQKDASTHKDWSSQVSSITCKPEKPETLPLGHFINGDFIVIIPAGGRALLSATGNAL” as the sequence, how does the “soluble on expression in E. coli” value read?
**A.** The value was “not soluble”.

**Q.** For “HHHHHHATGDDHFYAEYLMPGLQRLLDPESAHRLAVRVTSLGLLPRATFQDSDMLEVKVLGHKFRNPVGIAAGFDKNGEAVDGLYKLGFGFVEVGSVTPQPQEGNPRPRVFRLPEDQAVINRYGFNSHGLSVVEHRLRARQQKQAQLTADGLPLGINLGKNKTSEDAAADYAEGVRTLGPLADYLVVNVSSPNTAGLRSLQGKTELRHLLSKVLQERDALKGTRKPAVLVKIAPDLTAQDKEDIASVARELGIDGLIVTNTTVSRPVGLQGALRSETGGLSGKPLRDLSTQTIREMYALTQGRIPIIGVGGVSSGQDALEKIQAGASLVQLYTALIFLGPPVVVRVKRELEALLKERGFTTVTDAIGADHRR”, which “soluble on expression in E. coli” value is on record?
**A.** Its value is “soluble”.

**Q.** For “MKKICMKNGMKIIYEYRESDITSFCVAFNAGAEREGKKERGLAHVVEHCIFKGTKKRSEAQINSEFDEIFGFNNAMTNFPYVIYYGTTLSKDFEKGFELYSDIIVNPTFSEEGFEEEKSIICEELTEWKDDKQQFCEDELLKNSFSNIRLKECIIGNEKNIKDFSIDELRKFYKKYYTSDNCVIGIVTSLKEEEVTDIINNYMTLSKREKPSLFDYEYEKNTSGIFTSKMDVKGAVIQYLFPIYKLKDDEIKALRAFNVIFGEGTSSMLYDKIRTKYGLAYDIYSKINNDGGIKLFYIGLGTASENFDKSIEFVNDTICEAKNLKGQFSSDKLLKIEKTMSLKRSLKLERSIQLAKELATYELMYGKAENVYDEVKDINLLNEDYIIEVVRSVLVTPSIQVVKPNK”, which “soluble on expression in E. coli” value is on record?
**A.** The value was “not soluble”.

**Q.** Which “soluble on expression in E. coli” value does the source give for “MNPVKNRSEVLFIYDVKWANPNGDPLDENRPRFDEETSRLFVTDVRLKRTVRDYLAECYDETLWVTGEAVVPEDRVKELGIKDVNDACQKCIDIRLFGAVIPQSKKGAMESSITGPVQFRYGTSLHRVKLMTIQGTAAFATENSKQRSFREDQVVPYALIAFYGVINQNSAKFTGLTEEDVSKLLEGIWMGTKNLITRSKMEHNPRLLMRVVYKEGVNYHSGELDYLVKVVSEKEDEEIRDISELKLDVTELKQVLESLKDKIERIEYSVDNRLKLAENGEEKPFEEIFGGFQLVKLEW” here?
**A.** The value was “not soluble”.

**Q.** Which “soluble on expression in E. coli” value does the source give for “SMQEKREELRMRSENQAMNIVLQRQYDQYRLSIDNIELLRREFHDLKHYMIAIRSEQDPKKKEQYLLEMEEAIHTQEALTNTGNSVLDVVLTTKSTYCMQKHITFTCMADGKLISFMHVKDICSIFGNALDNAIECVSQFDDPEKRLITLSMYQKNQLLMIQCENYTETSLSLKPDQLPTTTKQNAGYHGYGLKSIQQAARKYGGSMTLHAEDNWFTLQVLIPVES” here?
**A.** The value was “not soluble”.

**Q.** For “MWEHDIVLEKIVDPVPDALYPCCIKAVRVGLKEDSWGEVQAIEEEMSTAELTANVNVALAPFQRKVVKEEGEAKKTKRAASKGRVEEVEQDVWKTLFDQALAYRDLAPWTWMDDDQIFAVVTPDGESLYCTVIGALGQEYGLVIYMGEEGYACLQDILSGTLHPKDAVFKERALLVSLAPRNHLERDDKALLRKHHIPVSGKQLLPMFRSFVPGYYPWFLSEEEAAWAAMALEQAVVVAERLRDGELFLASSARGNRLFARIAERREDGLHWRDGWVPPPKAKKKETSALDIGTDELAKAKTLERAPLFVEFSVAYVNRPIQERRWERPYFPLLVLAADAASGVILHHQVFRGQTDAKTLQQSFLAFARALGCVPSHVRVTKEHGPLLAPLLRELGVNMSTGPTPRSDEVRELFEQFAI”, which “soluble on expression in E. coli” value is on record?
**A.** The value was “not soluble”.

**Q.** With “SLPGMEHNHNHDHSSHGNHAMHDVGPADATYDLRFIDAMIQHHYGAIEMAKVTINQGYPGAGALASQIISAQSWEIANMLRQRQLRFPDAPIMPVRYTPGQSTVLSQLQPMTEADKVAMRMSGTMDMTGDRGKAFAAAMIPHHEMAIAMAEDALAKSGDSFVRSISWEIIRTQSDEIRRLRGLL” as the sequence, how does the “soluble on expression in E. coli” value read?
**A.** The value was “not soluble”.

**Q.** Which “soluble on expression in E. coli” value does the source give for “MYRTHYSSEITEELNGQKVKVAGWVWEVKDLGGIKFLWIRDRDGIVQITAPKKKVDPELFKLIPKLRSEDVVAVEGVVNFTPKAKLGFEILPEKIVVLNRAETPLPLDPTGKVKAELDTRLNNRFMDLRRPEVMAIFKIRSSVFKAVRDFFHENGFIEIHTPKIIATATEGGTELFPMKYFEEDAFLAESPQLYKEIMMASGLDRVYEIAPIFRAEEHNTTRHLNEAWSIDSEMAFIEDEEEVMSFLERLVAHAINYVREHNAKELDILNFELEEPKLPFPRVSYDKALEILGDLGKEIPWGEDIDTEGERLLGKYMMENENAPLYFLYQYPSEAKPFYIMKYDNKPEICRAFDLEYRGVEISSGGQREHRHDILVEQIKEKGLNPESFEFYLKAFRYGMPPHGGFGLGAERLIKQMLDLPNIREVILFPRDRRRLTP” here?
**A.** Its value is “soluble”.

**Q.** With “MTYAESTRSAVVYSSIVPPPRTPVGPPMLKDGVRKGSASQPLQPKNGANSLDYWSKSEDEKSGITCYYSRHNIQFPPPQRKMKPVKPNPVGRSTINGFTPSTSSPQNGLRYPPFPQNTPESVMSPPVGIYRNIPAMPRAKLTKDEKNGGKMNRDGGGENPKNVVWGGTSRKDDDTASTPLNSFSANASIEKKRSTARRKPRWARCFQTLFCCVTPPREIEKIQSSQRTNSTNNNHQNGRPSTPTNTGPPIQLITQVHRDGTVTGLPTTGQACQQNGSGDGVTPYDKIANDSVGTINEKPLLPPLLPQDSNKKCLVIDLDETLVHSSFKPVKNPDFVIPVEIDGVEHQVYVLKRPYVDEFLAKVGEHFECILFTASLAKYADPVADLLDKKRVFRGRLFREACVFHKGNYVKDLSRLGRNLNQTLIIDNSPASYAFHPENAVPVTTWFDDPSDTELLDILPSLEHLNGFSSIYDLYRPEEGPQSELLNHCSC” as the sequence, how does the “soluble on expression in E. coli” value read?
**A.** The value was “not soluble”.

**Q.** With “MSLKHYDLIIIGTGSGNSIPGPEFDDKSIAIVEKGAFGGTCLNVGCIPTKMYVYAADIAQEIQESARLGIDATVNSVDWPSIVSRVFDKRIDLIAQGGEAYRRGPETPNIDVYDMHASFVDSKTISTGIAGQEQLISGTDIVIATGSRPYIPEAIAESGARYYTNEDIMRLAQQPESLVIVGGGFIALEFAHVFEALGTKVTILNRSDVLLREADADISAKILELSKKRFDVRLSTAVTAVHNKADGGVKISTDTGDDIEADILLVATGRTPNGNQMNLDAAGIEMNGRSIKVDEFGRTSVEGVWALGDVSSPYKLKHVANAEMRAIKHNLANPNDLQKMPHDFVPSAVFTNPQISQVGMTEQEAREAGLDITVKIQNYSDVAYGWAMEDKDGFVKLIADKDTGKLVGAHIIGAQASTLIQQLITVMAFGIDAREAATKQYWIHPALPEVIENALLGLEFEGHHHHHH” as the sequence, how does the “soluble on expression in E. coli” value read?
**A.** Its value is “soluble”.

**Q.** For “MTIKKSQIEKWIAAQKRHRLSDTHVQMARELGLNPDKLGKIDNHRQEPWKAPLPEFIEEIFYKRFKKERPDVVKPLKQILKEQEIKTKTKKKEKEIRRKEREQEQINNGTDEVLTFQSPTPITE”, which “soluble on expression in E. coli” value is on record?
**A.** The value was “not soluble”.
